Key:
[1] = target: T1, human c-Met, cell membrane expressed (A549, BxPC-3, myeloma cells) (human, UniProt P08581 25-1390); assay: cell-based or functional assay
[2] = target: T2, recombinant human c-Met/Fc chimera (R&D systems) (human); assay: SPR (ProteOn); c-Met/Fc captured by anti-human IgG(Fc)
T2 construct: Bought protein; also called hc-Met/Fc; hu c-Met/Fc

[3] = target: T1, human c-Met, cell membrane expressed …; assay: cell-based or functional assay; remark: listed apart in the source
[4] = target: T2, recombinant human c-Met/Fc chimera (R&D …); assay: Alphascreen; competition with 100 pM biotinylated hHGF for c-MET/Fc
[5] = target: T1, human c-Met, cell membrane expressed …; assay: cell-based or functional assay; remark: listed apart in the source

T1 sequence (P08581 25-1390 limits assumed, form in doubt): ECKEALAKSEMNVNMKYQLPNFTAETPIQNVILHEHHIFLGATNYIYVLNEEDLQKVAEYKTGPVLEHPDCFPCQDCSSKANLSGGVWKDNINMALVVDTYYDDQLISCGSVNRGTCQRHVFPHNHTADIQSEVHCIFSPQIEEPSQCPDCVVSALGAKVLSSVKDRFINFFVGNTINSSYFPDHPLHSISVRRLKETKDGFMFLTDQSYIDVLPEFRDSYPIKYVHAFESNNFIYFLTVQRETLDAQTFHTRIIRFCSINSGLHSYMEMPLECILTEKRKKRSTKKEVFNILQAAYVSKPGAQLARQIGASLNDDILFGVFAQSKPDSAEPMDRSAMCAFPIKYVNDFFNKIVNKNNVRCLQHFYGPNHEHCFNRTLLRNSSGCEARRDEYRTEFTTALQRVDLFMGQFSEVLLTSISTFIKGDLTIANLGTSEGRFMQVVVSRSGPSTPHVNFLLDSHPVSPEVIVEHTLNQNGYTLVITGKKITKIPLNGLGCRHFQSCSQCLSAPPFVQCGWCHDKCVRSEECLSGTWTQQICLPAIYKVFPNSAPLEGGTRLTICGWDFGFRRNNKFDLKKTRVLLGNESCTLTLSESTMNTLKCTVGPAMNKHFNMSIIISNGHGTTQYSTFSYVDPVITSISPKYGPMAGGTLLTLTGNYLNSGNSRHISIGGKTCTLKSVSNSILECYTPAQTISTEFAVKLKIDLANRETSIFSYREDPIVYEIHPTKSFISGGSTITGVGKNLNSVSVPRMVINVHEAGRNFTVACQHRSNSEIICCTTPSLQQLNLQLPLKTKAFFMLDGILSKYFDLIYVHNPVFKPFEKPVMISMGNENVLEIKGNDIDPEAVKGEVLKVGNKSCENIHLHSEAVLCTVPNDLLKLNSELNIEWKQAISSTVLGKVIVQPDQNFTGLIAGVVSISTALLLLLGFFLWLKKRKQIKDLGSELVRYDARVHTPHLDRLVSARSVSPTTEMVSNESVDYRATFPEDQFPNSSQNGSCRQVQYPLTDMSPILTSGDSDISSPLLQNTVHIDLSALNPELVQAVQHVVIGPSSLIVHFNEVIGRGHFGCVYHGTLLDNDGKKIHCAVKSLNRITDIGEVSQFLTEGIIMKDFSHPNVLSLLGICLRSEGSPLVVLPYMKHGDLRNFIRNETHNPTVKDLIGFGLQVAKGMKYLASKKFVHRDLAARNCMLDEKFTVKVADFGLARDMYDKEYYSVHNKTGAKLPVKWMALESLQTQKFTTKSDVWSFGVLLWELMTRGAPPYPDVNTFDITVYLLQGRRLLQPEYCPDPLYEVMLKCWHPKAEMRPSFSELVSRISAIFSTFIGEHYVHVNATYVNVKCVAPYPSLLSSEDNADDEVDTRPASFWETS
T2 sequence (chain, as listed by the source mutant limits assumed): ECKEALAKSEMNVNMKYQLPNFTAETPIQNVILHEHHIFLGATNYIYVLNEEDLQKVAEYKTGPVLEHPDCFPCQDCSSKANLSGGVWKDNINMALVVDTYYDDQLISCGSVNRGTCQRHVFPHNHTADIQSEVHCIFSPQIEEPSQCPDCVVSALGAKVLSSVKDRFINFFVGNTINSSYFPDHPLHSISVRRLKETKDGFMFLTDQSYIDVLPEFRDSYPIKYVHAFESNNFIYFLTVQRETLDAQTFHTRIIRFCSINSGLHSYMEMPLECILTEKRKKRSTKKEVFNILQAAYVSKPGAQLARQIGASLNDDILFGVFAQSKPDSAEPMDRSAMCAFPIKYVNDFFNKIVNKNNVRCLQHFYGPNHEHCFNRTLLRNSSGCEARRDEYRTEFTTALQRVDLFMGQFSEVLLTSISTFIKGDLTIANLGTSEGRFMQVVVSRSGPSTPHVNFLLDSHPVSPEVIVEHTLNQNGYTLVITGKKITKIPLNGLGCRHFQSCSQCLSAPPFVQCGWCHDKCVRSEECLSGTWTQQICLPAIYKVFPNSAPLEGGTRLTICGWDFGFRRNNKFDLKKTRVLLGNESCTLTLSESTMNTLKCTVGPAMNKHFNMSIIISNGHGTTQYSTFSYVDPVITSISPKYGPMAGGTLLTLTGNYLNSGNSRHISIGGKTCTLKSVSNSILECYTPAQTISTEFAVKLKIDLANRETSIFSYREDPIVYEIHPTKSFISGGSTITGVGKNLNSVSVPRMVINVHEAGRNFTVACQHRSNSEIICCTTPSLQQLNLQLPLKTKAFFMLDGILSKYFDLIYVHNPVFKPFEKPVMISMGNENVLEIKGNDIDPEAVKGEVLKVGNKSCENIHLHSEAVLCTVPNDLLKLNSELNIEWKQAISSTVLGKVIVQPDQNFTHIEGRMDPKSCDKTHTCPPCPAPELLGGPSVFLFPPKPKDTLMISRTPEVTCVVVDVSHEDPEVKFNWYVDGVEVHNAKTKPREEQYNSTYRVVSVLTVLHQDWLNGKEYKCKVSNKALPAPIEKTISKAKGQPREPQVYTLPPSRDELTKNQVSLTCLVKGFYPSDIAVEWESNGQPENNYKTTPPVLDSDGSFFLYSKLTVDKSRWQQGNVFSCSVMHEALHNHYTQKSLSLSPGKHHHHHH

B1: 04E09(C22A/C92S) (SEQ ID NO: 25) tagged with 3xFlag-His6 (VHH)
VHH: EVQLVESGGGLVQPGGSLRLSAAASGFILDYYAIGWFRQAPGKEREGVLCIDASDDITYYADSVKGRFTISRDNAKNTVYLQMNSLKPEDTGVYYSATPIGLSSSCLLEYDYDYWGQGTLVTVSSGAADYKDHDGDYKDHDIDYKDDDDKGAAHHHHHH
[1]
  IC50, HGF-dependent c-Met phosphorylation: 3.8 nM

B2: 04E09(C50S/C100bG) (SEQ ID NO: 24) tagged with 3xFlag-His6 (VHH)
VHH: EVQLVESGGGLVQPGGSLRLSCAASGFILDYYAIGWFRQAPGKEREGVLSIDASDDITYYADSVKGRFTISRDNAKNTVYLQMNSLKPEDTGVYYCATPIGLSSSGLLEYDYDYWGQGTLVTVSS
[2]
  fold lower on-rate and off-rates against 04E09-9GS-Alb11 and 04E09 (C22A/C92S): 10 fold

B3: A007901219 (A00790105-9GS-Alb23) (bispecific antibody)
chain: DVQLVESGGGLVQPGGSLRLSCAASGFILDYYAIGWFRQAPGKEREGVLCIDASDDITYYADSVKGRFTISRDNSKNTVYLQMNSLRPEDTAVYYCATPIGLSSSCLLEYDYDYWGQGTLVTVSSGGGGSGGGSEVQLLESGGGLVQPGGSLRLSCAASGFTFRSFGMSWVRQAPGKGPEWVSSISGSGSDTLYADSVKGRFTISRDNSKNTLYLQMNSLRPEDTAVYYCTIGGSLSRSSQGTLVTVSS
notes: also called A007901219 (Alb23)
[3]
  IC50, cMET phosphorylation assay, + HSA: 4.2 nM
  IC50, cMET phosphorylation assay, - HSA: 5.41 nM
[4]
  fold improved potency as compared to 5D5 Fab v2: > 5 fold

B4: 04E09(L49S) (SEQ ID NO: 23) tagged with 3xFlag-His6 (VHH)
VHH: EVQLVESGGGLVQPGGSLRLSCAASGFILDYYAIGWFRQAPGKEREGVSCIDASDDITYYADSVKGRFTISRDNAKNTVYLQMNSLKPEDTGVYYCATPIGLSSSCLLEYDYDYWGQGTLVTVSS
[1]
  IC50, HGF-dependent c-Met phosphorylation: 3.1 nM

B5: A007900184 (33H10-3xFLAG-His6) (VHH)
VHH: EVQLVESGGGLVQAGGSLRLSCAASGFTFDDYAIGWFRQAPGEEREGVSSISSTYGLTYYADSVKGRFTISSSNAKNTVYLQMNNLKPEDTAVYYCAATPIERLGLDAYEYDYWGQGTLVTVSS
[5]
  IC50, c-Met phosphorylation: 79 nM

B6: A007901250 (VHH)
VHH: EVQLVESGGGLVQPGGSLRLSCAASGFAFDDYAIGWFRQAPGEERLGVSSISSTYGLTYYADSVKGRFTISSDNSKNTVYLQMNSLRPEDTAVYYCAATPIGLIGLDAYEYDYWGQGTLVTVSS
[5]
  IC50, Proliferation assay, plate 1: 2.29 nM
  IC50, Proliferation assay, plate 2: 1.32 nM
  IC50, c-Met phosphorylation: 2.34 nM

B7: A007901252 (VHH)
VHH: EVQLVESGGGLVQPGGSLRLSCAASGFAFDDYAIGWFRQAPGKERLGVSSISSTYGLTYYADSVKGRFTISSDNSKNTVYLQMNSLRPEDTAVYYCAATPIGLIGLDAYEYDYWGQGTLVTVSS
[5]
  IC50, c-Met phosphorylation: 4.16 nM

B8: A007901245 (VHH)
VHH: EVQLVESGGGLVQPGGSLRLSCAASGFTFDDYAIGWFRQAPGEEREGVSSISSTYGLTYYADSVKGRFTISSDNSKNTVYLQMNSLRPEDTAVYYCAATPIGLIGLDAYEYDYWGQGTLVTVSS
[5]
  IC50, Proliferation assay, plate 1: 3.69 nM
  IC50, c-Met phosphorylation: 5.41 nM

B9: A007901248 (VHH)
VHH: EVQLVESGGGLVQPGGSLRLSCAASGFAFDDYAIGWFRQAPGKEREGVSSISSTYGLTYYADSVKGRFTISSDNSKNTVYLQMNSLRPEDTAVYYCAATPIGLIGLDAYEYDYWGQGTLVTVSS
[5]
  IC50, c-Met phosphorylation: 11.5 nM

B10: A007901251 (VHH)
VHH: EVQLVESGGGLVQPGGSLRLSCAASGFTFDDYAIGWFRQAPGKERLGVSSISSTYGLTYYADSVKGRFTISSDNSKNTVYLQMNSLRPEDTAVYYCAATPIGLIGLDAYEYDYWGQGTLVTVSS
[5]
  IC50, c-Met phosphorylation: 4.98 nM

B11: A007901247 (VHH)
VHH: EVQLVESGGGLVQPGGSLRLSCAASGFTFDDYAIGWFRQAPGKEREGVSSISSTYGLTYYADSVKGRFTISSDNSKNTVYLQMNSLRPEDTAVYYCAATPIGLIGLDAYEYDYWGQGTLVTVSS
[5]
  IC50, c-Met phosphorylation: 12.8 nM

B12: A007901249 (VHH)
VHH: EVQLVESGGGLVQPGGSLRLSCAASGFTFDDYAIGWFRQAPGEERLGVSSISSTYGLTYYADSVKGRFTISSDNSKNTVYLQMNSLRPEDTAVYYCAATPIGLIGLDAYEYDYWGQGTLVTVSS
[5]
  IC50, Proliferation assay, plate 2: 1.93 nM
  IC50, c-Met phosphorylation: 2.81 nM

B13: A007901246 (VHH)
VHH: EVQLVESGGGLVQPGGSLRLSCAASGFAFDDYAIGWFRQAPGEEREGVSSISSTYGLTYYADSVKGRFTISSDNSKNTVYLQMNSLRPEDTAVYYCAATPIGLIGLDAYEYDYWGQGTLVTVSS
[5]
  IC50, Proliferation assay, plate 1: 1.88 nM
  IC50, c-Met phosphorylation: 3.44 nM

B14: A007901253 (VHH)
VHH: EVQLVESGGGLVQPGGSLRLSCAASGFTFDDYAIGWFRQAPGEEREGVSSISSTYGLTYYADPVKGRFTISSDNSKNTVYLQMNSLRPEDTAVYYCAATPIGLIGLDAYEYDYWGQGTLVTVSS
[5]
  IC50, c-Met phosphorylation: 4.84 nM
